From patent US20250242064A1, “CXCR4-TARGETING COMPOUNDS, AND METHODS OF MAKING AND USING THE SAME” (PROVINCIAL HEALTH SERVICES AUTHORITY, priority 2022, published 2025)
Where a SMILES comes first, the peptide text is derived from it. Bridges are numbered along the chain shown (N, C = ends). Side-chain parts run from the residue outwards. [ ]: non-standard residue; d: D form. The star is where a group is joined. X1 = O=C(O)CN1CCN(CC(=O)O)CCN(CC(=O)N[C@@H](CS(=O)(=O)O)C(=O)N[C@@H](CCCCNC(=O)CCCc2ccc(I)cc2)C(=O)*)CCN(CC(=O)O)CC1; X2 = O=C(O)CN1CCOCCN(CC(=O)O)CCN(CC(=O)*)CCOCCN(CC(=O)O)CC1; 2Nal = N[C@@H](Cc1ccc2ccccc2c1)C(=O)O; Lys(iPr) = CC(C)NCCCC[C@H](N)C(=O)O; Cya = N[C@@H](CS(=O)(=O)O)C(=O)O

What was measured:
[1] = tested on: Z138 tumor-bearing mice; assay: in vivo; conditions: male, NOD.Cg-Rag1tm1Mom Il2rgtm1Wjl/SzJ (NRG), mouse, iv
Outline: (§1)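 Male NRG mice bearing subcutaneous Z138 mantle cell lymphoma xenografts (5×10^6 cells, grown to 200-300 mm^3) injected intravenously under isoflurane with 68Ga-labelled tracers. Harvested tissues weighed and gamma-counted; uptake expressed as % ID/g.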

[2] = in vivo; set-up: species or system mice; conditions: male, NOD.Cg-Rag1tm1Momll2rgtm1Wjl/SzJ (NRG), mouse, iv, total radioactivity, Mean; for tissue uptake at 1 h / tissue uptake at 3 h / tissue uptake at 24 h / tissue uptake at 72 h / tissue uptake at 120 h: Biodistribution
Outline: as §1

In the case of `CC(C)NCCCC[C@H](NC(=O)[C@H]1CCC(=O)N[C@@H](CCCCNC(=O)[C@H](CCCCNC(=O)CCCc2ccc(I)cc2)NC(=O)[C@H](CS(=O)(=O)O)NC(=O)CN2CCN(CC(=O)O)CCN(CC(=O)O)CCN(CC(=O)O)CC2)C(=O)N[C@@H](Cc2ccc(O)cc2)C(=O)N[C@@H](CCCCNC(C)C)C(=O)N[C@H](CCCNC(=N)N)C(=O)N[C@@H](Cc2ccc3ccccc3c2)C(=O)N[C@H](C)C(=O)N1)C(N)=O` [[^177Lu]Lu-BL34L11] [metal not drawn] (K(X1)Y[Lys(iPr)][dR][2Nal][dA][dE][Lys(iPr)]-NH2; lactam N-7), the “Biodistribution: Adrenals” value ([1]; 1 h) is reported as 3.76 % ID/g, the “Biodistribution: Blood” value ([1]; 1 h) is reported as 18.59 % ID/g and the “Biodistribution: Bone” value ([1]; 1 h) is reported as 1.16 % ID/g. For the same compound, the “Biodistribution: Brain” value ([1]; 1 h) was 0.29 % ID/g, the “Biodistribution: Heart” value ([1]; 1 h) was 4.23 % ID/g and the “Biodistribution: Kidneys” value ([1]; 1 h) was 5.23 % ID/g. The “Biodistribution: Liver” value ([1]; 1 h) was 3.14 % ID/g, the “Biodistribution: Lungs” value ([1]; 1 h) was 14.83 % ID/g and the “Biodistribution: Muscle” value ([1]; 1 h) was 1.20 % ID/g. The “Biodistribution: Pancreas” value ([1]; 1 h) was 1.80 % ID/g, the “Biodistribution: Small Intestine” value ([1]; 1 h) was 1.56 % ID/g and the “Biodistribution: Spleen” value ([1]; 1 h) was 1.56 % ID/g. For the same compound, the “Biodistribution: Stomach” value ([1]; 1 h) was 0.61 % ID/g, the “Biodistribution: Testes” value ([1]; 1 h) was 2.49 % ID/g and the “Biodistribution: Z138 Tumor” value ([1]; 1 h) was 4.09 % ID/g. The “Ratio Tumor-to-Blood” value ([1]; 1 h) was 0.22, the “Ratio Tumor-to-Bone” value ([1]; 1 h) was 2.39 and the “Ratio Tumor-to-Kidney” value ([1]; 1 h) was 0.78. The “Ratio Tumor-to-Muscle” value ([1]; 1 h) was 3.35, the “Ratio Tumor-to-Pancreas” value ([1]; 1 h) was 2.31 and the “Biodistribution: Adrenals” value ([1]; 3 h) was 3.12 % ID/g. For the same compound, the “Biodistribution: Blood” value ([1]; 3 h) was 14.23 % ID/g, the “Biodistribution: Bone” value ([1]; 3 h) was 0.97 % ID/g and the “Biodistribution: Brain” value ([1]; 3 h) was 0.22 % ID/g. The “Biodistribution: Heart” value ([1]; 3 h) was 3.34 % ID/g, the “Biodistribution: Kidneys” value ([1]; 3 h) was 3.92 % ID/g and the “Biodistribution: Liver” value ([1]; 3 h) was 3.18 % ID/g. The “Biodistribution: Lungs” value ([1]; 3 h) was 7.95 % ID/g, the “Biodistribution: Muscle” value ([1]; 3 h) was 1.25 % ID/g and the “Biodistribution: Pancreas” value ([1]; 3 h) was 1.54 % ID/g. The “Biodistribution: Small Intestine” value ([1]; 3 h) was 1.35 % ID/g, the “Biodistribution: Spleen” value ([1]; 3 h) was 2.03 % ID/g and the “Biodistribution: Stomach” value ([1]; 3 h) was 0.83 % ID/g. The “Biodistribution: Testes” value ([1]; 3 h) was 3.53 % ID/g, the “Biodistribution: Z138 Tumor” value ([1]; 3 h) was 9.81 % ID/g and the “Ratio Tumor-to-Blood” value ([1]; 3 h) was 0.69. For the same compound, the “Ratio Tumor-to-Bone” value ([1]; 3 h) was 8.14, the “Ratio Tumor-to-Kidney” value ([1]; 3 h) was 2.52 and the “Ratio Tumor-to-Muscle” value ([1]; 3 h) was 7.89. For the same compound, the “Ratio Tumor-to-Pancreas” value ([1]; 3 h) was 6.59.
Work on `CC(C)NCCCC[C@H](NC(=O)[C@H]1CCC(=O)N[C@@H](CCCCNC(=O)[C@H](CS(=O)(=O)O)NC(=O)CN2CCOCCN(CC(=O)O)CCN(CC(=O)O)CCOCCN(CC(=O)O)CC2)C(=O)N[C@@H](Cc2ccc(O)cc2)C(=O)N[C@@H](CCCCNC(C)C)C(=O)N[C@H](CCCNC(=N)N)C(=O)N[C@@H](Cc2ccc3ccccc3c2)C(=O)N[C@H](C)C(=O)N1)C(N)=O` [[^177Lu]Lu-crown-BL34L20, metal not drawn] (K([Cya-X2])Y[Lys(iPr)][dR][2Nal][dA][dE][Lys(iPr)]-NH2; lactam N-7) yielded a tissue uptake at 1 h ([2]; Adrenals) of 0.2 %ID/g, a tissue uptake at 3 h ([2]; Adrenals) of 0.11 %ID/g and a tissue uptake at 24 h ([2]; Adrenals) of 0.1 %ID/g. For the same compound, the tissue uptake at 72 h ([2]; Adrenals) was 0.08 %ID/g, the tissue uptake at 120 h ([2]; Adrenals) was 0.05 %ID/g and the tissue uptake at 1 h ([2]; Blood) was 0.35 %ID/g. The tissue uptake at 3 h ([2]; Blood) was 0.08 %ID/g, the tissue uptake at 24 h ([2]; Blood) was 0.02 %ID/g and the tissue uptake at 72 h ([2]; Blood) was 0.01 %ID/g. The tissue uptake at 1 h ([2]; Bone) was 0.15 %ID/g, the tissue uptake at 3 h ([2]; Bone) was 0.15 %ID/g and the tissue uptake at 24 h ([2]; Bone) was 0.51 %ID/g. The tissue uptake at 72 h ([2]; Bone) was 0.66 %ID/g, the tissue uptake at 120 h ([2]; Bone) was 0.56 %ID/g and the tissue uptake at 1 h ([2]; Brain) was 0.01 %ID/g. For the same compound, the tissue uptake at 3 h ([2]; Brain) was 0.01 %ID/g, the tissue uptake at 24 h ([2]; Brain) was 0.01 %ID/g and the tissue uptake at 72 h ([2]; Brain) was 0.01 %ID/g. For the same compound, the tissue uptake at 1 h ([2]; Heart) was 0.14 %ID/g, the tissue uptake at 3 h ([2]; Heart) was 0.06 %ID/g and the tissue uptake at 24 h ([2]; Heart) was 0.05 %ID/g. It also gave a tissue uptake at 72 h ([2]; Heart) of 0.05 %ID/g, a tissue uptake at 120 h ([2]; Heart) of 0.05 %ID/g and a tissue uptake at 1 h ([2]; Kidneys) of 3.02 %ID/g. For the same compound, the tissue uptake at 3 h ([2]; Kidneys) was 2.45 %ID/g, the tissue uptake at 24 h ([2]; Kidneys) was 1.81 %ID/g and the tissue uptake at 72 h ([2]; Kidneys) was 0.94 %ID/g. The tissue uptake at 120 h ([2]; Kidneys) was 0.59 %ID/g, the tissue uptake at 1 h ([2]; Liver) was 0.73 %ID/g and the tissue uptake at 3 h ([2]; Liver) was 0.77 %ID/g. The tissue uptake at 24 h ([2]; Liver) was 0.81 %ID/g, the tissue uptake at 72 h ([2]; Liver) was 0.67 %ID/g and the tissue uptake at 120 h ([2]; Liver) was 0.59 %ID/g. The tissue uptake at 1 h ([2]; Lungs) was 0.53 %ID/g, the tissue uptake at 3 h ([2]; Lungs) was 0.28 %ID/g and the tissue uptake at 24 h ([2]; Lungs) was 0.2 %ID/g. The tissue uptake at 72 h ([2]; Lungs) was 0.17 %ID/g, the tissue uptake at 120 h ([2]; Lungs) was 0.15 %ID/g and the tissue uptake at 1 h ([2]; Muscle) was 0.09 %ID/g. For the same compound, the tissue uptake at 3 h ([2]; Muscle) was 0.03 %ID/g, the tissue uptake at 24 h ([2]; Muscle) was 0.03 %ID/g and the tissue uptake at 72 h ([2]; Muscle) was 0.02 %ID/g. For the same compound, the tissue uptake at 120 h ([2]; Muscle) was 0.01 %ID/g, the tissue uptake at 1 h ([2]; Pancreas) was 0.12 %ID/g and the tissue uptake at 3 h ([2]; Pancreas) was 0.04 %ID/g. The tissue uptake at 24 h ([2]; Pancreas) was 0.04 %ID/g, the tissue uptake at 72 h ([2]; Pancreas) was 0.03 %ID/g and the tissue uptake at 120 h ([2]; Pancreas) was 0.03 %ID/g. For the same compound, the tissue uptake at 1 h ([2]; Small Intestine) was 0.23 %ID/g, the tissue uptake at 3 h ([2]; Small Intestine) was 0.1 %ID/g and the tissue uptake at 24 h ([2]; Small Intestine) was 0.17 %ID/g. The tissue uptake at 72 h ([2]; Small Intestine) was 0.08 %ID/g, the tissue uptake at 120 h ([2]; Small Intestine) was 0.06 %ID/g and the tissue uptake at 1 h ([2]; Spleen) was 0.29 %ID/g. It also gave a tissue uptake at 3 h ([2]; Spleen) of 0.23 %ID/g, a tissue uptake at 24 h ([2]; Spleen) of 0.26 %ID/g and a tissue uptake at 72 h ([2]; Spleen) of 0.24 %ID/g. For the same compound, the tissue uptake at 120 h ([2]; Spleen) was 0.22 %ID/g, the tissue uptake at 1 h ([2]; Stomach) was 0.08 %ID/g and the tissue uptake at 3 h ([2]; Stomach) was 0.09 %ID/g. The tissue uptake at 24 h ([2]; Stomach) was 0.52 %ID/g, the tissue uptake at 72 h ([2]; Stomach) was 0.12 %ID/g and the tissue uptake at 120 h ([2]; Stomach) was 0.14 %ID/g. The tissue uptake at 1 h ([2]; Testes) was 0.11 %ID/g, the tissue uptake at 3 h ([2]; Testes) was 0.04 %ID/g and the tissue uptake at 24 h ([2]; Testes) was 0.04 %ID/g. For the same compound, the tissue uptake at 72 h ([2]; Testes) was 0.03 %ID/g, the tissue uptake at 120 h ([2]; Testes) was 0.03 %ID/g and the tissue uptake at 1 h ([2]; Z138 Tumor) was 13.7 %ID/g. It also gave a tissue uptake at 3 h ([2]; Z138 Tumor) of 11.7 %ID/g, a tissue uptake at 24 h ([2]; Z138 Tumor) of 7.28 %ID/g and a tissue uptake at 72 h ([2]; Z138 Tumor) of 3.47 %ID/g. The tissue uptake at 120 h ([2]; Z138 Tumor) was 2.38 %ID/g, the tissue to tissue ratio at 1 h ([2]; Tumor-to-Blood ratio) was 39.4 and the tissue to tissue ratio at 3 h ([2]; Tumor-to-Blood ratio) was 147. For the same compound, the tissue to tissue ratio at 24 h ([2]; Tumor-to-Blood ratio) was 301, the tissue to tissue ratio at 72 h ([2]; Tumor-to-Blood ratio) was 396 and the tissue to tissue ratio at 120 h ([2]; Tumor-to-Blood ratio) was 607. The tissue to tissue ratio at 1 h ([2]; Tumor-to-Bone ratio) was 94, the tissue to tissue ratio at 3 h ([2]; Tumor-to-Bone ratio) was 83.2 and the tissue to tissue ratio at 24 h ([2]; Tumor-to-Bone ratio) was 15.3. It also gave a tissue to tissue ratio at 72 h ([2]; Tumor-to-Bone ratio) of 5.53, a tissue to tissue ratio at 120 h ([2]; Tumor-to-Bone ratio) of 5.33 and a tissue to tissue ratio at 1 h ([2]; Tumor-to-Kidney ratio) of 4.54. It also gave a tissue to tissue ratio at 3 h ([2]; Tumor-to-Kidney ratio) of 4.78, a tissue to tissue ratio at 24 h ([2]; Tumor-to-Kidney ratio) of 4.01 and a tissue to tissue ratio at 72 h ([2]; Tumor-to-Kidney ratio) of 3.69. It also gave a tissue to tissue ratio at 120 h ([2]; Tumor-to-Kidney ratio) of 4.1, a tissue to tissue ratio at 1 h ([2]; Tumor-to-Muscle ratio) of 161 and a tissue to tissue ratio at 3 h ([2]; Tumor-to-Muscle ratio) of 430. For the same compound, the tissue to tissue ratio at 24 h ([2]; Tumor-to-Muscle ratio) was 281, the tissue to tissue ratio at 72 h ([2]; Tumor-to-Muscle ratio) was 175 and the tissue to tissue ratio at 120 h ([2]; Tumor-to-Muscle ratio) was 178. The tissue to tissue ratio at 1 h ([2]; Tumor-to-Pancreas ratio) was 140, the tissue to tissue ratio at 3 h ([2]; Tumor-to-Pancreas ratio) was 276 and the tissue to tissue ratio at 24 h ([2]; Tumor-to-Pancreas ratio) was 198. The tissue to tissue ratio at 72 h ([2]; Tumor-to-Pancreas ratio) was 103 and the tissue to tissue ratio at 120 h ([2]; Tumor-to-Pancreas ratio) was 78.
